In US9260500B2, “Peptide and use thereof” (Takeda Pharmaceutical Company Limited, priority 2009, dated 2016):
Non-standard residues stand in square brackets, D forms with d. No end group written: not given here. *: point of attachment. X11 = ((1S)-1-carboxy-3-methylbutyl)carbamoyl, CC(C)C[C@H](NC(=O)*)C(=O)O; Phe(3-Me) = Cc1cccc(C[C@H](N)C(=O)O)c1; hArg = N=C(N)NCCCC[C@H](N)C(=O)O; tBuAla = CC(C)(C)C[C@H](N)C(=O)O; 4Pal = N[C@@H](Cc1ccncc1)C(=O)O; Cha = N[C@@H](CC1CCCCC1)C(=O)O; Isonicotinoyl = O=C(c1ccncc1)*; dIva = CC[C@@](C)(N)C(=O)O; Aib = CC(C)(N)C(=O)O; βAla = NCCC(=O)O

What was measured:
[1] = tested on: male C57EL/6J mice; assay: 3-Days Continuous Subcutaneous Administration Test-1 (food intake suppressing activity); assay type: in vivo, mouse; settings: 0.03 mg/kg/day, subcutaneous Alzet pump, food consumption over 3 days; relative to food intake suppression rate for PYY(3-36) (1 mg/kg/day) taken as 100%
Method: (4) Test Method: 3-Days Continuous Subcutaneous Administration Test-1
The food intake suppressing activity of the compound of the present invention was examined by the method described below.
The test compound was dissolved in 50% DMSO so that sustained release would occur at 0.03 mg/kg/day, and the solution was filled in the Alzet Pump (Alzet model: 1003D, sustained release rate: 1 μL/hr, capacity: 100 μL). After the filling, the pump was placed in a 2 mL Eppendorf tube containing 330 μL of physiological saline, and incubated at 37° C. for 2 hours or more. Thereafter, this pump was subcutaneously embedded in the back of each mouse by the method described below. After weighing, each male […] mice at 12-13 weeks of age (25° C., allowed to take food and water ad libitum; 12-hour bright-12-hour dark cycle, lighting turned on at 08:00) was anesthetized with diethyl ether; the skin in the upper back thereof was incised, and the above-mentioned pump was embedded subcutaneously. Thereafter, several drops of penicillin solution (100000 units/mL) were added to the incised part, and the incision was sutured using Michel's surgical needle. This mouse was returned to the rearing cage (reared alone), and given previously weighed food; 3 days later, the amount of remaining food was measured. Food consumption was calculated by subtracting the amount of remaining food after 3 days from the weight of the food given on the day of pump embedding. The food intake suppressing activity of each test compound was expressed as a food intake suppression rate (%) relative to the food intake suppression rate for PYY(3-36) (1 mg/kg/day) taken as 100%.

[2] = biological target: T1, human Y2 receptor (Homo sapiens, UniProt P49146); assay: Receptor Binding Assay (RBA) for Human Y2, [125I]-PYY displacement on hY2R/CHO membrane fraction; settings: IC50 of test compound/IC50 of PYY(3-36) (PYY(3-36) taken as 1)
T1 construct: expressed in transfected cells; membrane fraction
T1 sequence (P49146 1-381): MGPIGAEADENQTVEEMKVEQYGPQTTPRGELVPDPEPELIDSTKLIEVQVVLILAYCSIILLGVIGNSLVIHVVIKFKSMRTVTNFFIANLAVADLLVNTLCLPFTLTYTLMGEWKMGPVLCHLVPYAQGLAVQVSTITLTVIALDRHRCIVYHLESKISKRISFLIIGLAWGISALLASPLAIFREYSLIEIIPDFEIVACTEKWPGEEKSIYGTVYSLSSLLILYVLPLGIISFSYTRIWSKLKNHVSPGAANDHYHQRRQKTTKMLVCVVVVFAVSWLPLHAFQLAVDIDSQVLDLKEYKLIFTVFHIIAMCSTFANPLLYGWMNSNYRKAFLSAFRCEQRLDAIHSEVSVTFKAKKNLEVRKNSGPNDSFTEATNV
Procedure, shortened: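 hY2R stably expressed in CHO/dhfr− cells; membrane fraction prepared from cells disrupted in 10 mM NaHCO3, 5 mM EDTA buffer with protease inhibitors. Binding read as displacement of [125I]-PYY.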

[3] = biological target: T1, human Y2 receptor; assay: Human Y2 Receptor G Protein Binding Assay (GBA), [35S]GTPγS; assay type: biochemical; settings: EC50 of test compound/EC50 of PYY(3-36) (PYY3-36 taken as 1), hY2R/CHO membrane fraction
Procedure, shortened: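 Agonism measured as [35S]GTPγS binding, read by GF/C filtration and scintillation counting after 120 min at room temperature, using human Y2 membranes at 1 μg protein/mL in pH 7.4 Tris/MgCl2/NaCl/GDP buffer. Compound serially diluted 100 μM–1 nM; EC50 normalized to PYY(3-36) (ratio = compound/PYY).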

Row | RBA IC50 Ratio [2] | GBA EC50 Ratio [3] | Substance | food intake suppression rate (%) [1] [%]
1 | – | – | [(1S)-1-carboxy-3-methylbutyl]carbamoyl-[D-Pro24, Cha27,36, Leu(Me)28, Lys30, Aib31]-PYY(23-36) (X11-S[dP]RH[Cha][tBuAla]NK[Aib]TRQR[Cha]-NH2; SMILES CC(C)C[C@H](NC(=O)N[C@@H](CO)C(=O)N1CCC[C@@H]1C(=O)N[C@@H](CCCNC(=N)N)C(=O)N[C@@H](Cc1c[nH]cn1)C(=O)N[C@@H](CC1CCCCC1)C(=O)N[C@@H](CC(C)(C)C)C(=O)N[C@@H](CC(N)=O)C(=O)N[C@@H](CCCCN)C(=O)NC(C)(C)C(=O)N[C@H](C(=O)N[C@@H](CCCNC(=N)N)C(=O)N[C@@H](CCC(N)=O)C(=O)N[C@@H](CCCNC(=N)N)C(=O)N[C@@H](CC1CCCCC1)C(N)=O)[C@@H](C)O)C(=O)O) [compound No. 253] | 19
2 | – | – | Ac-[D-Pro24, Cha27,36, Leu(Me)28, Lys30, Aib31]-PYY(23-36) (Ac-S[dP]RH[Cha][tBuAla]NK[Aib]TRQR[Cha]-NH2; SMILES CC(=O)N[C@@H](CO)C(=O)N1CCC[C@@H]1C(=O)N[C@@H](CCCNC(=N)N)C(=O)N[C@@H](Cc1c[nH]cn1)C(=O)N[C@@H](CC1CCCCC1)C(=O)N[C@@H](CC(C)(C)C)C(=O)N[C@@H](CC(N)=O)C(=O)N[C@@H](CCCCN)C(=O)NC(C)(C)C(=O)N[C@H](C(=O)N[C@@H](CCCNC(=N)N)C(=O)N[C@@H](CCC(N)=O)C(=O)N[C@@H](CCCNC(=N)N)C(=O)N[C@@H](CC1CCCCC1)C(N)=O)[C@@H](C)O) [compound No. 136] | 10
3 | – | – | Ac-[Glu23, D-Pro24, Cha27,28,36, Lys30, Aib31]-PYY(23-36) (Ac-E[dP]RH[Cha][Cha]NK[Aib]TRQR[Cha]-NH2; SMILES CC(=O)N[C@@H](CCC(=O)O)C(=O)N1CCC[C@@H]1C(=O)N[C@@H](CCCNC(=N)N)C(=O)N[C@@H](Cc1c[nH]cn1)C(=O)N[C@@H](CC1CCCCC1)C(=O)N[C@@H](CC1CCCCC1)C(=O)N[C@@H](CC(N)=O)C(=O)N[C@@H](CCCCN)C(=O)NC(C)(C)C(=O)N[C@H](C(=O)N[C@@H](CCCNC(=N)N)C(=O)N[C@@H](CCC(N)=O)C(=O)N[C@@H](CCCNC(=N)N)C(=O)N[C@@H](CC1CCCCC1)C(N)=O)[C@@H](C)O) [compound No. 137] | 25
4 | – | – | Ac-[D-Pro24, Phe26, Cha27,36, Aib28,31, Lys30]-PYY(23-36) (Ac-S[dP]RF[Cha][Aib]NK[Aib]TRQR[Cha]-NH2; SMILES CC(=O)N[C@@H](CO)C(=O)N1CCC[C@@H]1C(=O)N[C@@H](CCCNC(=N)N)C(=O)N[C@@H](Cc1ccccc1)C(=O)N[C@@H](CC1CCCCC1)C(=O)NC(C)(C)C(=O)N[C@@H](CC(N)=O)C(=O)N[C@@H](CCCCN)C(=O)NC(C)(C)C(=O)N[C@H](C(=O)N[C@@H](CCCNC(=N)N)C(=O)N[C@@H](CCC(N)=O)C(=O)N[C@@H](CCCNC(=N)N)C(=O)N[C@@H](CC1CCCCC1)C(N)=O)[C@@H](C)O) [compound No. 345] | 10
5 | 1.7 | 1.2 | [βAla23, D-Pro24, Cha27,28,36, Aib31]-PYY(23-36) ([βAla][dP]RH[Cha][Cha]NL[Aib]TRQR[Cha]-NH2; N-terminus assumed; SMILES CC(C)C[C@H](NC(=O)[C@H](CC(N)=O)NC(=O)[C@H](CC1CCCCC1)NC(=O)[C@H](CC1CCCCC1)NC(=O)[C@H](Cc1c[nH]cn1)NC(=O)[C@H](CCCNC(=N)N)NC(=O)[C@H]1CCCN1C(=O)CCN)C(=O)NC(C)(C)C(=O)N[C@H](C(=O)N[C@@H](CCCNC(=N)N)C(=O)N[C@@H](CCC(N)=O)C(=O)N[C@@H](CCCNC(=N)N)C(=O)N[C@@H](CC1CCCCC1)C(N)=O)[C@@H](C)O) [compound No. 116] | –
6 | 1.1 | 0.69 | Ac-[Thr23, D-Pro24, Pya(4)26, Cha27,36, Aib28,31, Lys30]-PYY(23-36) (Ac-T[dP]R[4Pal][Cha][Aib]NK[Aib]TRQR[Cha]-NH2; SMILES CC(=O)N[C@H](C(=O)N1CCC[C@@H]1C(=O)N[C@@H](CCCNC(=N)N)C(=O)N[C@@H](Cc1ccncc1)C(=O)N[C@@H](CC1CCCCC1)C(=O)NC(C)(C)C(=O)N[C@@H](CC(N)=O)C(=O)N[C@@H](CCCCN)C(=O)NC(C)(C)C(=O)N[C@H](C(=O)N[C@@H](CCCNC(=N)N)C(=O)N[C@@H](CCC(N)=O)C(=O)N[C@@H](CCCNC(=N)N)C(=O)N[C@@H](CC1CCCCC1)C(N)=O)[C@@H](C)O)[C@@H](C)O) [compound No. 211] | –
7 | 1.2 | 2.7 | Ac-[D-Pro24, Har25, Cha27,36, Aib28,31, Lys30]-PYY(23-36) (Ac-S[dP][hArg]H[Cha][Aib]NK[Aib]TRQR[Cha]-NH2; SMILES CC(=O)N[C@@H](CO)C(=O)N1CCC[C@@H]1C(=O)N[C@@H](CCCCNC(=N)N)C(=O)N[C@@H](Cc1c[nH]cn1)C(=O)N[C@@H](CC1CCCCC1)C(=O)NC(C)(C)C(=O)N[C@@H](CC(N)=O)C(=O)N[C@@H](CCCCN)C(=O)NC(C)(C)C(=O)N[C@H](C(=O)N[C@@H](CCCNC(=N)N)C(=O)N[C@@H](CCC(N)=O)C(=O)N[C@@H](CCCNC(=N)N)C(=O)N[C@@H](CC1CCCCC1)C(N)=O)[C@@H](C)O) [compound No. 291] | –
8 | 0.91 | 1.2 | Ac-[D-Pro24, Pya(4)26, Cha27, Aib28,31, Lys30, Phe(3Me)36]-PYY(23-36) (Ac-S[dP]R[4Pal][Cha][Aib]NK[Aib]TRQR[Phe(3-Me)]-NH2; SMILES CC(=O)N[C@@H](CO)C(=O)N1CCC[C@@H]1C(=O)N[C@@H](CCCNC(=N)N)C(=O)N[C@@H](Cc1ccncc1)C(=O)N[C@@H](CC1CCCCC1)C(=O)NC(C)(C)C(=O)N[C@@H](CC(N)=O)C(=O)N[C@@H](CCCCN)C(=O)NC(C)(C)C(=O)N[C@H](C(=O)N[C@@H](CCCNC(=N)N)C(=O)N[C@@H](CCC(N)=O)C(=O)N[C@@H](CCCNC(=N)N)C(=O)N[C@@H](Cc1cccc(C)c1)C(N)=O)[C@@H](C)O) [compound No. 260] | –
9 | 20 | 31 | Ac-[D-Iva23, D-Pro24, Cha27,28,36, Aib31]-PYY(23-36) (Ac-[dIva][dP]RH[Cha][Cha]NL[Aib]TRQR[Cha]-NH2; SMILES CC[C@@](C)(NC(C)=O)C(=O)N1CCC[C@@H]1C(=O)N[C@@H](CCCNC(=N)N)C(=O)N[C@@H](Cc1c[nH]cn1)C(=O)N[C@@H](CC1CCCCC1)C(=O)N[C@@H](CC1CCCCC1)C(=O)N[C@@H](CC(N)=O)C(=O)N[C@@H](CC(C)C)C(=O)NC(C)(C)C(=O)N[C@H](C(=O)N[C@@H](CCCNC(=N)N)C(=O)N[C@@H](CCC(N)=O)C(=O)N[C@@H](CCCNC(=N)N)C(=O)N[C@@H](CC1CCCCC1)C(N)=O)[C@@H](C)O) [compound No. 183] | –
10 | 1.9 | 1.8 | 4-Pyridinecarbonyl-[Glu23, D-Pro24, Pya(4)26, Cha27,36, Aib28,31, Lys30]-PYY(23-36) (Isonicotinoyl-E[dP]R[4Pal][Cha][Aib]NK[Aib]TRQR[Cha]-NH2; SMILES C[C@@H](O)[C@H](NC(=O)C(C)(C)NC(=O)[C@H](CCCCN)NC(=O)[C@H](CC(N)=O)NC(=O)C(C)(C)NC(=O)[C@H](CC1CCCCC1)NC(=O)[C@H](Cc1ccncc1)NC(=O)[C@H](CCCNC(=N)N)NC(=O)[C@H]1CCCN1C(=O)[C@H](CCC(=O)O)NC(=O)c1ccncc1)C(=O)N[C@@H](CCCNC(=N)N)C(=O)N[C@@H](CCC(N)=O)C(=O)N[C@@H](CCCNC(=N)N)C(=O)N[C@@H](CC1CCCCC1)C(N)=O) [compound No. 215] | –
